Data reported in US20050260207A1 (published 2005).

Molecular target: recombinant human cathepsin B (human, UniProt P07858 80-333)
Experiment: Western blot of recombinant human cathepsin B, goat anti-human IgG-HRP as secondary antibody
Text: A: polyacrylamide gel electrophoresis of recombinant human cathepsin B (1) and of standards (2); B: Western blot—cathepsin B (1) stained with chimeric 2A2 antibody. Goat anti-human antibody (IgG) conjugated with horseradish peroxidase was used as a secondary antibody. As the substrate 0.05% diaminobenzidine (DAB) and 0.01% of H₂O₂ in 0.05M Tris/HCl buffer, pH 7.5 were used.

binding result: binds
B1: chimeric 2A2 antibody, expressed in Chinese hamster ovary (CHO) cells (antibody, V domains shown)
VH: QVQLQQSGAELVRSGASIKLSCTASGFNIKDYYMHWVKQRPEQGLEWIGWIDPENGDTEYAPKFRGKATMTADTSSKTAYLQLSSLTSEDTAVYYCNARRHGYYEMDYWGQGTSVTVSS
VL: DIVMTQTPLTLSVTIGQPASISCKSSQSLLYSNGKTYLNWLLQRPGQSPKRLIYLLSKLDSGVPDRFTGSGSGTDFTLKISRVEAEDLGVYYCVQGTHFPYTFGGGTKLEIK
notes: A secretion leader was used for expression and is not part of the mature protein; also called chimeric antibody 2A2; 2A2 chimeric antibody; not shown: human IgG1 heavy chain constant region (human Cgamma1 region from pUC/hIgG1); human kappa light chain constant region (human Ckappa gene from pUC/hCK)
